Here are results for one molecule from patent US20230151091A1 (NEW YORK UNIVERSITY, published 2023).

Test [1] addresses T1, rat MuSK (rat, UniProt Q62838 22-494, limits assumed).
T1 construct: Coated on Biacore chip (200RU) or ELISA plate
T1 sequence (looked up): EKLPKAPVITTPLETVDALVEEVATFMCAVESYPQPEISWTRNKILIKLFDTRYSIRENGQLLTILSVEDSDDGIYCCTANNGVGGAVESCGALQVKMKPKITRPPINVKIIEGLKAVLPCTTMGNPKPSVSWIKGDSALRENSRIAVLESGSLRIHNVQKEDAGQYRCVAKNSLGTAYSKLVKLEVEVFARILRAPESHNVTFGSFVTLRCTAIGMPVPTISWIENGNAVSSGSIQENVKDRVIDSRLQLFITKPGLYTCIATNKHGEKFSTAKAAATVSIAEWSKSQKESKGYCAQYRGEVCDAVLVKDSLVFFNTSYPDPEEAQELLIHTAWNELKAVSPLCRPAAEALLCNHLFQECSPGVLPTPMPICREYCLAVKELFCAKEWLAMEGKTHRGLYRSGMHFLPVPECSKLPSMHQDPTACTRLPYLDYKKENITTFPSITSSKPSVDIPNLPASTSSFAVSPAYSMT
Description: Biacore, MuSK on chip, association pH 7.4, dissociation pH 5.5. Here is the method:
(§1) For affinity determination, a CMS chip was coated with cynomolgus monkey, rat and mouse MuSK (200RU) and 66.7 nM of antibody was applied and kinetic parameters calculated (Table 8). The following conclusions could be drawn: (1) 3B2g1m3 and 3B2g2m3 (m3 variants) show significant drop in affinity for MuSK for all species tested; (2) 3B2g1m2 and 3B2g2m2 (m2 variants) show some drop in affinity for MuSK; (3) 3B2g1m1, 3B2g2m1, 3B2g1m4, 3B2g2m4 (ml and m4 variants) show no drop in affinity for MuSK for all species tested; and (4) for all clones there is no difference between g1 and g2 variants (VL methionine versus serine in CDR3).
(§2) In order to study pH dependent binding of our antibodies to MuSK, the same Biacore was used as above, but now dissociation was done at pH 5.5 instead of pH 7.4. […] The following conclusions could be drawn for the different variants: (1) 3B2g1m3 and 3B2g2m3 (m3 variants) show significant drop in affinity for MuSK for all species tested; (2) 3B2g1m2 and 3B2g2m2 (m2 variants) show some drop in affinity for MuSK; (3) 3B2g1m1, 3B2g2m1, 3B2g1m4, 3B2g2m4 (m1 and m4 variants) show no drop in affinity for MuSK for all species tested; and (4) for all clones there is no difference between g1 and g2 variants (VL methionine versus serine in CDR3).

Test [2] has as its target T2, cynomolgus monkey MuSK (cynomolgus monkey, UniProt A0A2K5USF6 24-487). The test is described as above. As for the experimental part: as §1, §2
For test [3], the target named is T3, mouse MuSK (mouse, UniProt Q61006 22-494, limits assumed).
T3 construct: Coated on ELISA plates or on the Biacore chip; also called full length mouse MuSK; mouse MuSK (in house produced in HEK293 cells)
T3 sequence (looked up): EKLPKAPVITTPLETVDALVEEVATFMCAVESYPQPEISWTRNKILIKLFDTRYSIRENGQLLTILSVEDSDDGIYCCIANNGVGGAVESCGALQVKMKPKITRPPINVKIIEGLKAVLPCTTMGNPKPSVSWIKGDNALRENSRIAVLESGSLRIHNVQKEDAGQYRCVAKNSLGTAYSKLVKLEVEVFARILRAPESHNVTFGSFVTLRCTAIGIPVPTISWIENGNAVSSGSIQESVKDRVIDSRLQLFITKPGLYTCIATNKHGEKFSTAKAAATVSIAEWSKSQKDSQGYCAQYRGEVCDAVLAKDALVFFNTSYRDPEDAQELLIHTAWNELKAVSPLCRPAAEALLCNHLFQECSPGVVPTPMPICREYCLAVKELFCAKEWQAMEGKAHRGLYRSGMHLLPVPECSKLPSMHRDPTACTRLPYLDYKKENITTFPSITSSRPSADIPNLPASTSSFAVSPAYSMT
The description is as above. As for the experimental part:
as §1, §2

Test [4] has as its target T3, mouse MuSK. Description: Biacore, MuSK on chip, association pH 7.4, dissociation pH 5.5; association at pH 7.4, dissociation at pH 5.5. As for the experimental part:
as §1, §2
For orientation: Surface plasmon resonance follows binding to a sensor surface in real time, without labels.

The target in test [5] is T4, mouse MuSK, endogenous (C2C12 myotubes; neuromuscular synapses of mice) (mouse, UniProt Q61006 22-868).
T4 sequence (looked up): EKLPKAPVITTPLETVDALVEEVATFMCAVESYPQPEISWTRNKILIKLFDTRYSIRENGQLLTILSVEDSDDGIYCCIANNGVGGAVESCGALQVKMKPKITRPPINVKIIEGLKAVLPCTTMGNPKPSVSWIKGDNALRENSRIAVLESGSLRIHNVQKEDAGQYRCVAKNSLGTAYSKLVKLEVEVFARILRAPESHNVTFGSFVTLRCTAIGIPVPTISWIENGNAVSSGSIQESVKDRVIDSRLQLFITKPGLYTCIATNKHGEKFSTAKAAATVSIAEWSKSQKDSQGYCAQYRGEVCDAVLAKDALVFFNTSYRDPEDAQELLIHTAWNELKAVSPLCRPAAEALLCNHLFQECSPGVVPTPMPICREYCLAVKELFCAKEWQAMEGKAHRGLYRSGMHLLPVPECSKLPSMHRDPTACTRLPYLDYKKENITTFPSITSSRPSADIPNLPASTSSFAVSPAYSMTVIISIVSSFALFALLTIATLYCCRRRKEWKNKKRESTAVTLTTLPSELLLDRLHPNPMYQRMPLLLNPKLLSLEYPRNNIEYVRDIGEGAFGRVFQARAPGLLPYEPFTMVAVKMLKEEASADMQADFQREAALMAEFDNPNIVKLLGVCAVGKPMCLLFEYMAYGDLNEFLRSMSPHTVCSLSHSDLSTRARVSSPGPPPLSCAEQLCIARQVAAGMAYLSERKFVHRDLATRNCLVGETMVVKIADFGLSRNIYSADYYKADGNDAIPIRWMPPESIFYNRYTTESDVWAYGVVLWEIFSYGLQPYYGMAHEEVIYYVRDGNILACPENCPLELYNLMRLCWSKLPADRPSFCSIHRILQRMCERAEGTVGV
Description: cell-based or functional assay.

Test [6] deals with T1, rat MuSK. Description: Biacore, MuSK on chip (200RU), 66.7 nM mAb, dissociation pH 7.4. Here is the method: as §1
Test [7] deals with T2, cynomolgus monkey MuSK. The test is described as above. Here is the method: as §1
The target of test [8] is T3, mouse MuSK. Described as above. Here is the method: as §1

T2 sequence (A0A2K5USF6 entry or part of it): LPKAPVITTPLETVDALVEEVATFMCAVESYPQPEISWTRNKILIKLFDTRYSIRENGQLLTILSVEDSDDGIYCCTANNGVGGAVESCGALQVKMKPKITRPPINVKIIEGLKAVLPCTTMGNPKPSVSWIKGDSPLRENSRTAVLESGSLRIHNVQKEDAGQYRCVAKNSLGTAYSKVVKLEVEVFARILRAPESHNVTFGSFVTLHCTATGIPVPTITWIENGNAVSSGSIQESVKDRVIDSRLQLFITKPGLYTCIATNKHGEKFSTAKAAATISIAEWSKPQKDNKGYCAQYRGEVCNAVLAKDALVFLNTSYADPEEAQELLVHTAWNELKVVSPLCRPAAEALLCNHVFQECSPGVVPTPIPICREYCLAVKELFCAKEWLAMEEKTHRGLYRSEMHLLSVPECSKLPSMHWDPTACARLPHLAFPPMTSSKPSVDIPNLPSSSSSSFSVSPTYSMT

B1: 3B2g1m2 (antibody, human IgG1, V domains shown)
VH: EVQLLESGGGLVQPGGSLRLSCAASGFTFSDYGMSWVRQAPGKGLEWVSAIPGSGGSTYYKESVKGRFTISRDNSKNTLYLQMNSLRAEDTAVYYCAKRSGRIAFGALDAWGQGTLVTVSS
VL: QTVVTQEPSFSVSPGGTVTLTCGLSSGSVTSSNYPDWYQQTPGQAPRTLIYSTDSRHSGVPDRFSGSILGNKAALTITGAQADDESDYYCGLYMYSGSKNYVFGGGTKLTVL
notes: human IgG1-LALA backbone; produced in HEK293 cells
Turning to B1, the R0 in test [1] turned out to be 136 RU; in test [2] it was 148 RU; in test [3], 152 RU; in test [6], 125 RU; in test [7] it was 133 RU; in test [8] it was 155 RU. Moreover, the koff in test [1] came to 0.0865 s⁻¹; in test [2] it was 0.0034 s⁻¹; in test [4], 0.00915 s⁻¹; in test [6] it was 0.00314 s⁻¹; in test [7] it was 0.00183 s⁻¹; in test [8], 0.00253 s⁻¹. Moreover, the kon in test [1] amounted to 40000 M⁻¹ s⁻¹; in test [2], 800000 M⁻¹ s⁻¹; in test [3] it was 70000 M⁻¹ s⁻¹; in test [6] it was 1.45e+06 M⁻¹ s⁻¹; in test [7], 850000 M⁻¹ s⁻¹; in test [8], 1.61e+06 M⁻¹ s⁻¹. Besides, the “MuSK phosphorylation in C2C12 myotubes” value in test [5] was ~80 % of 1 nM agrin.

By koff is commonly meant the first-order rate constant of dissociation. A word on the kon: it is the second-order rate constant of association.
